Literature values as cited in paper PMC3000922.

Molecular target: integrin β3 cytoplasmic tail (Homo sapiens) (UniProt P05106)
Assay: SPR

UniProt P05106, sequence (P05106 742-788): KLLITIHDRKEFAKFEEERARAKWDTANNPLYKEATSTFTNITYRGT

Substance: integrin αIIb cytoplasmic tail (from UniProt P08514)
- Kd: 7 µM
